We go through 16 sequences from the DeepSol protein solubility set.

A short description of the data set: soluble on expression in E. coli; label from the status in PepcDB or PDB records.
For “METATHYDLFIIGGGINGCGLARDAAGRGFKVGLAEMNDLASGTSSASTKLIHGGLRYLEYYEFRLVREALKEREIIWRMAPHIVRPLRFLLPYHKKLRPAWMLRFGLFIYDYLGNWNQKLWRSKTVNFSKSFCSILKEEYHKGFEYSDARVDDARLVIANARDAEKWGAVIKVRTEVLSLKSEEKKWVVILRDKLSGKESCVTASYVANMTGPWINHILSNVLDCKENPPVRLVRGSHILVPKLYAHDRAYIFQNGDGRILFSIPYQEEFTLLGTTDCGYQGDPADVHITDTEIDYICTAASEYFVQPVLRESIVWTYSGVRPLYDDGASKAQEITRDYVLKEMGTESTPRILNLYGGKITTYRKLAEDAMKFVEKALGKKGKPWTINSTLPGGDFPHNKLDTIENKIALLVPDLDAFTYRRLARSYGCEALMIFANGKADKGKNFGHGLYEVEVKWLMEKEWAKTCEDVLWRRSKLGLLFNKKEINALTAYMQKIQDNEQNS”, the “soluble on expression in E. coli” value was “not soluble”.
On to “MSLQVKHLLLIAILALTAACSSNKETVDENLSESQLYQQAQDDLNNKSYNSAVTKLKALESRYPFGRYAEQAQLELIYANYKNMEPEAARAAAERFIRLHPQHPNVDYAYYLKGLSSFDQDRGLLARFLPLDMTKRDPGAARDSFNEFAQLTSRFPNSRYAPDAKARMVYLRNLLAAYEVHVGHYYLKRQAYVAAANRGRYVVENFQETPAVGDGLAIMVEAYRRLGLDDLASTSLETLKLNYPDNASLKDGEFVARESEADTRSWLAKATLGLIEGGEPPPHMETQAAKDVIKQYEDAEREIPAELKPENQDHSADDEKPESDDDEDSGRSWWSYMTFGLFDEGGSHHHHHH”, for which the “soluble on expression in E. coli” value is given as “soluble”.
As to “MGSDKIHHHHHHMLNNYMSILSLNENDNDIKSLTKARPLASIPIAGRYRIIDFILSNLVNSGVKNIGILTQCKSRSLLDHLGSGKPWDLDRKLNGLFIFNFSGITSTLSDIEMLKSNMEYLYRSTQEKVILSSSAVICNIDFQRAAEFHEKSGKDITLIYKRTNNGKRKFLNCSVLNMDKNNNVISIGKNTGLDDVQNISLGMFIMNKKLLINILNNCIRTGFSLSLKQCIRKHMNNFTVNAYEFNGYAEYIDSVKSYYKVNMDMLNLDINREVFFKNGLIYTKVKDEAPTKYFNDSEVCNSLIANGSLIHGQIENSIIGRRVTISKGARIKNCVIMQNCTIKENVDLTNVIVDKNVIIDENTVLKGGKEFPLVIEKKSIYSEV”, the “soluble on expression in E. coli” value is recorded as “not soluble”.
As to “SLGRIKAQAFGFDQTFQSYRKDDFVMAFFKDPNVIPNLKLLSDSSGQWIILGTEVKKIEAINVPCTQLSMSFFHRLYDEDIVRDSGHIVKCLDSFCDPFLISDELRRVLLVEDSEKYEIFSQPDREEFLFCLFKHLCLGGALCQYEDVISPYLETTKLIYKDLVSVRKNPQTKKIQITSSVFKVSAYDSAGMCYPSAKNHEQTFSYFIVDPIRRHLHVLYHCYGVGDMS”, the “soluble on expression in E. coli” value is reported as “soluble”.
“MGSDKIHHHHHHMNILVSNGEEHVNQTIASFFHQRGDRPILLFTEKEKHLEYVAGHPEQEAVLCTTYEEETLAAMVKEAFEEEAIDVLVHGNEMVNEAELLERDPSSLNEVVQKALYHLFLLNKVVVRDMVKRKQGKIIFPLFYDPLYYAGYASSPILNQAKLSLMKCMSRELGAFKINVNSITFGYYNDQFTREEKKATKSQVEIFCLKPKLPEIEEYVHSIGLLVDPSASLIGGENLHVGAGIETGI”: the “soluble on expression in E. coli” value was “not soluble”.
The value for “MDGISLYDDCVMLAYNKEVRRNCLPFTCGENDLDDFFLNDADLYADELLGKTYCWVTTEIPHRIVALFTLSNDSIKTRLISPNDKNRLQRNIVNPKRGRSYPAVLIGRLGVNLEYQGTSSHVGRQLMAFIKDWFRHEDNKTGCRFIVVDAYNEEKILRYYERNGFVPLYKTDVIEKQYYDIPQDEPLKTRLLYFDLKKD” was “not soluble”.
On to “MRLKKLPIRRKMPMELAYIEKLFREEVGLDIKEHKDKAEQISETVVEIYEELLRKGIENANYNGRDYVSYYDLPITEDLERYMNRFIQDRGEEVLKAFVDYLAKLEEELLKAEEALPPLDEELHQKKADILGGIMLMFASVAKQINGDRKLYAESIPVTREVLRTMI”, for which the “soluble on expression in E. coli” value is “not soluble”.
For “MLDPARSFDIIGDVHGCALTLERLLDALGYKRVAGVWRHPRRQALFLGDIVDRGPRIREALHIVHDMVEAGQAFCIMGNHEYNALGWVTPALPGSGKAYVREHTPRHARLIDETLTQFAQHPGDWHDFVNWFYQLPLFIDAGRFRLVHALEHHHHHH”, the “soluble on expression in E. coli” value is listed as “not soluble”.
For “MGSDKIHHHHHHMSDSVSIAKYMHRDCLHCPAPLVGTSFKPCHFADIVDNGLQDGFFEVHAENYMGKGGPPHRALSALRETYPVSVHGVCLSIGGPSPLDAHHLARFRDVVARYEPVLVSEHLAWSSHGGAFYNDLLPLPYTKATLDRVCAHVDQIQEAIARPLLLENPSTYVGFASSTMSETEFIAAVAGRTGCGLLLDINNAFVSATNHGCSAADYLADFPLEQVGEIHLAGHSEQRDDEDEPLLIDSHDRPIAGPVWALYASVIARTGPVPTLVEWDSQLPDWLVLRAQALEARRIMDAAVASPVEVADHAL”, the “soluble on expression in E. coli” value is listed as “not soluble”.
With “MAHHHHHHMNGEVSVERKFSPSQPGYGSEGCRQSMGTTTNNGARRFSATELGRTVGMPYSFDTMRYLKDVMRRREDIHTMRVMPKTHLLAQLVLLEQSGREMLIHQERFCRQQIAHKRDDERSKREEQRLQQKNRDRLEEMKRKQVEELAALKEGVTSFQRQIDAEVKEKLRIVCMLQPRMNVAAAVLAEVKNEASPFLLLPELMEEEKRVAKALKADSRYSKSSADSGAVPHWMRTCVAGSFNVAAILQDAPYRATVDDAVKVTNAFLRKVVVVRDVNDRSVVGWVHVRAGSDPATLATELVRLPAPEELPDQGNIGVVWPKEDFLELSRRAKANNNVETQQLLQSVLGISSASLHCVGLTTHEFSKKEVDTIGSLASV”, the “soluble on expression in E. coli” value is given as “not soluble”.
With “VFADKLDITVDQKKIILPYWLSRPVSYGAVIIVSGGETAQWSLLLEQFAKGLARNGWSVVLLNCTKNNSIPWINQLPEVISTLRQNNNKRIVLVHYGDQLNLALEYFSKPQSKMINGLVMLSAYDLNRNLQKVPRLRFPLFDIVGQFDYDMVRQQRKSREEKFKENSYLAIDIPGATHDYQYSQQLLLAFVHGWM”, the “soluble on expression in E. coli” value was “not soluble”.
As to “MKKRLLLSTFLASTLILTGCASDQSDNEDHHTSTGIHAPKSAKKLETKDIFNSDKKNSDISDAEMKQAIEKYLSVNSDILDNKYIMQHKLDKQIDSQTKVTEKQAETLSHLSNLAVKNDLHFKKFVTENNIPKEYKKPVELMMNYFKALNSTIANVDEDIEKLSYQPQNKINVVDVPTKYAGDVNKKQQDKIKDFLKSKGIKSDVIDK”, the “soluble on expression in E. coli” value is listed as “not soluble”.
The value for “MSGVRMIDRWEEDNKMFLRLYIKERVLPTIYGSILGDLVGVPVEFKKRGSFFVEDIIGYGTYNQPAGTWSDDTSLTLCLIENIVEEGTIKSLMEKFVNYQDKGYMTPYGQMFDIGGATAQAIGRFKAGCLPQNCGGQSEYDNGNGAIMRISPLAFLFDNEFDFVKKAEVIKQYTEITHAHPRAIVGSIIYIELLLRLYHNNTLEKSIKDILDLFEENFPKNHIYMDEFKYYKRIFDSNFFNVPEEQILSDGYVVHTLEAAIWCVGNTKNFKEAILKAVNLGGDTDTVGVITGAIAGMYYKMDEIPQDWLNKIAKKQDIDELINKFYKYCADKAVIEKYGSL” was “not soluble”.
For “MKSGERSAVADRAQQIMSAARELLDAEGPDALSMRRIAERVGIRAPSLYKHFADKAALVAGLQAQGLTLLAEVQEAAEAEIGADPPLLVLGYAYRRHALASPHLYRITHGWPLARTALPEGLEDRAALPLARAVHGDINIARSFWAFAHGMVVLELDGRFPPGADLDVAWRTGCEAFTQAIRNRPHGSTA”, the “soluble on expression in E. coli” value is recorded as “not soluble”.
Next, “LNKELQHERLAYITDSELIIFADFLPTEFVDEYLIDQSEESVAHIQQALSYEDNKVGRYAEPHFLVANPKNSVGGIKTELLKRGQSPVRLIIVRDVGGVIGTIEPQILLLHENHTKLTDLTVVTPILEDIQTIQSVSKQVSIDGGAHWFPIMAGGKIMGVLSMATIAITLRELSLQAVVAENVRSEEDLFTPLTVATRLRAL”: “not soluble”; “MRKISEMPKFERPREKLLERGVGYLSDLELLAVLIGNGTKDCSVMNVAGKVLKLLDKGCDRVSARVLQEIEGVGPAKSAVIAAALEFARRRIRPEGIKITSACDILPLISYLANRKQEHFVCVSLNGASEVIATRVVSVGLVNNVQVHPREVFADPITDRATAVIVAHNHPSGSVAPSQEDIEVTKRLKDAGNTLGIKLIDHIIFSRKGYFSFLENGQMPD”: “soluble”.
